Test results as given in the RNAGym collection of RNA variant scans (doi:10.1073/pnas.2313332121).

B1: TPR t1 (parent)
chain: GACCAAUCUGCCCUCAGAGCUCGAGAACAUCUUCGGAUGCAGAGGAGGCAGGCUUCGGUGGCGCGAUAGCGCCAACGUCCUCAACCUCCAAUGCAUCCCACCACAUGAUGAUGCCUGAAGAGCCUUGGUUUUUUG

Variants of: B1
Assay: polymerase ribozyme fitness, log enrichment relative to wild type (log ratio); higher = more active; in vitro selection for triplet polymerase activity
Procedure, shortened: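 Each subunit of a heterodimeric triplet polymerase ribozyme was represented by a PCR-built, transcribed mutant library that underwent triplicate single-round in vitro selection with frozen incubation at −7 °C. Extended constructs were recovered by gel excision, streptavidin-bead capture and RT-PCR, and Illumina sequencing of input and output libraries kept genotypes with ≥10 input reads and ≥1 read per output. Fitness is the logarithm of genotype enrichment relative to wild-type enrichment, from inverse-variance-weighted replicate averages, with a logarithm base of 2.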

Going from GACCAAUCUACCCUCAGAGCUCGAGAACAUCUUCGGAUGCAGAGGAGGCAGGCUUCGGAGGAGCGAUAGCGCCAACGUCCUCAACCUCGAAUGCAUCCCACCACAUGAUGAUGCCUGAAGAGCCUUGGUUUUUUG to GACCAAUCUGCCCUCAGAGCUCGAGAACAUUUUCGGAUGCAGAGGAGGCAGGCUUCGGUGGCGCGAUAGCGCCAACGUCCUCACCCUCCAAUGCAUACCACCACAUGAUGAUGCCUGAAGUGCCUUGGUUUUUUG, the “polymerase ribozyme fitness (log ratio)” value falls from -5.2 to -6.87.

Going from GACCAAUCUGCCCUCAGAGCUCGAGAACAUCUUCGGAUGCAGAGGAGGCAGCCUCCGGUGGCGCGAUAGCGCCAACGUCCUCAACCUCCAAUGCAUCCCACCACAUGAUGAUGCCUGAAGAGCCUUGGUUUUUUG to GACCAAUCUGCCCUCAGAGCUCGAGAACAUCUUCGGAUGCGGAGGAGGAAGGCUUCGGUGGCGCGAUAGCGCCAACGUCCUCAACCUCCAAUGCAUCCCACCACAUGAUGAUCCCUGAAGAGCUUUGGUUUUUUG, the “polymerase ribozyme fitness (log ratio)” value falls from -0.101 to -3.06.

First: GACCAAUCUGCCCUCAGAGCUCGAGAACAUCUUCGGAUGCCGAGGAGGCAGGCUUCGGUGGCGCGAUAGCGCCAACGUCCGCAACCUCCAAUGCAUCCCACCACAUGAUGAUGCAUGAAGAGCCUUGGUUUUUUG
Second: GACCAAUCUGCCCUGAGAGCUCGAGAACAUCUUCGGAUGCAGAGGAGGCAGGCUUCGGUGGCGCGAUAGCGCCAACGUCCUCAACCUCCAAUGCAUCCCACCACAUGAUGAGGCCUGAAGAACCUUGGUUUUUUG
The “polymerase ribozyme fitness (log ratio)” value of the first is lower: -4.91 for the first, -1.95 for the second.

GACCAAUCUGCCCUCAGAGCUCGAGAACAUCUUCGGAUGCACAGGAGGCAGGCUUAGGUGGCGCGAUAGCGCCAACGUCCUCAACCUCCAAUGCAUCCCACCACAUGAUGAUGCCUGAAGAGCCUUGGUUUUUUG and GACCAAUCUGCCCUCAGAGCUCGAGAACAUCUUCGGAUGCAGAGGAGGCAGGCUUCUGUGGCGCGAUAGCGCCAACGUCCUCAACCUCCAAUGCAUCCCACCACAUGAUGAUUCCUGAAGAGCCUUGGUUUUUUG are within 0.2 log units of each other in “polymerase ribozyme fitness (log ratio)” value: -1.76 for the first, -1.79 for the second.

Compared with GACCAAUCUGCCCUCAGAGCUCGAGAACAUCUUCGGAUGCAGAAGAGGCAGGCUUCGGUGGCGCGAUAGCGGCAACGUCCUCAACCUCCAAUGCAUUCCACCACAUGAUGAUUCCUAAAGAGCCUUGGUUUUUUG, GACCAAUCUGCCCUCAGAGCUCGAGAACAUCUUCGGUUGCAGAGGAGGCCGGCUUCGGUGGCGCGAUAGCGCCAACGUCCUCAACCUCCAAUGCAUCCCACCACAUGAUGAUGCCUGAAGAGCGUUGGUUUUUUG is higher in “polymerase ribozyme fitness (log ratio)” value: -6.18 for the first, 1.16 for the second.

GACCAAUCUUCCCUCAGAGCUCGAGAACUUCUUCGGAUGCAGAGGAGGCAGGGUUCGGUGGCGCGAUAGCGCCAACGUCCUCAACCUCCAAUGCAUCCCACCACAUGAUGAUGCCUGAAGAGCCUUGGUUUUUUG and GACCAAUCAGCCCUCAGAGCUCGAGAACAUCUUCGGAUGCAGAGGAGGCAGGCUUCGGUGGCGCGAUAGCGCCAACGUCCUCAACCUCCAAUGCAUCCCACCACAUGAUUAUGCCUAAAGAGCCUUGGUUUUUUG are within 0.2 log units of each other in “polymerase ribozyme fitness (log ratio)” value: -2.58 for the first, -2.51 for the second.

Compared with GACCAAUCUGCCCUCAGAGCUCGAGAACAUCUUCGGAUGCAGAGGAGGCAGGCUUCGGUGGCGCGCUAGCGGCAACGUCCUCAACCUCCAAUGCAUCCCACCACAUGAUGAUGCAUGAAGAGCCUUGGUUUUUUG, GACCCAUCUGCCCUCAUAGCUCGAGAACAUCUUCGGAUGCAGAGGAGGCCGGCUUCGGUGGCGCGAUAGCGCCAACGUCCUCAACCUACAAUGCAUCCCACCACAUGAUGAUGCCUGAAGAGCCUUGGUUUUUUG is lower in “polymerase ribozyme fitness (log ratio)” value: -1.65 for the first, -4.51 for the second.

Going from GACCAAACUGGUCUCAGCGCUCGAGAACGUCUUCGGAUGCAGAGGAUGCAGGCUUCGGUCGCGCGAUAGCGCCAACGUCCUCAACCUCCAAUGCAUCCCACCACAUGAUGAUGCCUGAAGAGCCUUGGUUUUUUG to GACCAAUCUGCCCUCAGAGCUCGAGAACAUCUUCGGAUGCAGAGGAGACAGGCUUCGGUGGCGCGAUAGCGCCAACGUCCUCAACCUCCAAUGCAUCCCACCACAUGAUGCUGCCUGAAGAGCCUUGGUUUUUUG, the “polymerase ribozyme fitness (log ratio)” value rises from -5.79 to -0.446.

Going from GACCAAUCUGCCCUCAGAGCUCGAGAUCAUCUUCAGAUGCAGAGGAGGUAGGCUUCGGUGGCGCGAUAGCGCCAACGUCCUCAACCUACGAUGCAUCACACCACAUGAAGAUGCCUGAAGAGCCUUGGUUUUUUG to GACCAAUCUACCCUCAGAGCUCGAGAACAUCUUCGGAUGCAGAGGAGGCAGGCUUCGGUGGAGCGAUAGCGCCAACGUCCUCAACCUCCAAUGCAUCCCACCACAUGAUGAUGCCUGAAGAGCCUUGGUUUUUUG, the “polymerase ribozyme fitness (log ratio)” value rises from -4.79 to -0.929.

GACCAAUCUGCCCUCAGAGCUCGAGAACAUCUUCGGAUGCAGAGGAGGCAGGCUUCGGUAGCGCGAUAGCGCCAACGUCCUCAACCUCCAAUGCAUCCCACCACAUGAUGAUGCCUGAAGAGCCUUGGUUUUUUG and GACCAAUCUGCCCUCAGAGCUCGAGAACAUCUUCGGAUGGAGAGGAGCCAGGCUUCGGUGGCGCGAUAGCGCCAACGUCCUCAACCUCCAAUCCAUCCCACCACAUGAUGAUGCCUGAAGAGCCUUGGUUUUUUG are within 0.2 log units of each other in “polymerase ribozyme fitness (log ratio)” value: -0.00692 for the first, 0.0171 for the second.

For GACCAAUCUGCCCUCAGAGCUCGAGAACAUCUUCGGGUGCAGAGGAGGCAGGCUUCGGUGGCGCGAUAGCUCCAACGUCCUCAACCUCCAAUGCAUCCCACCACAUGAUGAUGACUGACGAGCCUUGGUUUUUUG, the “polymerase ribozyme fitness (log ratio)” value was -5.35.
